Laboratory results taken from patent US20260226179A1 (MAB DESIGNS, published 2026).
Substitutions are numbered along the chain they refer to. “And” between values parts separate entries of the source, which are not always exact repeats. Equal values may be shown once.

T1: human membrane-bound IL-6R subunit alpha (human, UniProt P08887 20-468)
T1 sequence: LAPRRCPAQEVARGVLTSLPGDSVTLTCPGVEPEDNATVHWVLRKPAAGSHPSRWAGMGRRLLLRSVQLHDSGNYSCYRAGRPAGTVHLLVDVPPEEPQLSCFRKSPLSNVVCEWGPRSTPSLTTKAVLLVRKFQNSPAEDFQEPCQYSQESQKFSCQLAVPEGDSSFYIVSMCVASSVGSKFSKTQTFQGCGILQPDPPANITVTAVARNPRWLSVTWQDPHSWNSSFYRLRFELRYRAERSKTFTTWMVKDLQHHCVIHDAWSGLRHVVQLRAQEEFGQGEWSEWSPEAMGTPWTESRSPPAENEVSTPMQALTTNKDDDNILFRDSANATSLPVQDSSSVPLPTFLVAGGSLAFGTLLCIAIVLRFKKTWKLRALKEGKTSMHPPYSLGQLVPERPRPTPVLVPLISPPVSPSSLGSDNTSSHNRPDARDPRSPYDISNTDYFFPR

T2: human soluble IL-6R (human, UniProt P08887 20-357)
T2 sequence: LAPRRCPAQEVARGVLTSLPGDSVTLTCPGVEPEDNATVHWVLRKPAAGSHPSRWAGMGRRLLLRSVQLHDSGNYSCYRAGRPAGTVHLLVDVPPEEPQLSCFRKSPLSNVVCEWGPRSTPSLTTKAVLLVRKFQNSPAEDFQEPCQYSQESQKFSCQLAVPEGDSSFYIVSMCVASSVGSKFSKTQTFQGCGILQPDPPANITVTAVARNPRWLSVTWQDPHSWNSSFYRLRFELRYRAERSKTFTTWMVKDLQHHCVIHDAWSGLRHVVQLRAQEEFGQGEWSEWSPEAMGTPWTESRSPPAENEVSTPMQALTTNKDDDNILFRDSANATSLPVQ

T3: human soluble IL-6R (human, UniProt P08887 20-357, limits assumed)
T3 sequence: T2 sequence

T4: human membrane-bound IL-6R subunit alpha (human, UniProt P08887 20-468)
T4 sequence: T1 sequence

T5: mouse membrane-bound IL-6R subunit alpha (mouse, UniProt P22272 20-460)
T5 sequence: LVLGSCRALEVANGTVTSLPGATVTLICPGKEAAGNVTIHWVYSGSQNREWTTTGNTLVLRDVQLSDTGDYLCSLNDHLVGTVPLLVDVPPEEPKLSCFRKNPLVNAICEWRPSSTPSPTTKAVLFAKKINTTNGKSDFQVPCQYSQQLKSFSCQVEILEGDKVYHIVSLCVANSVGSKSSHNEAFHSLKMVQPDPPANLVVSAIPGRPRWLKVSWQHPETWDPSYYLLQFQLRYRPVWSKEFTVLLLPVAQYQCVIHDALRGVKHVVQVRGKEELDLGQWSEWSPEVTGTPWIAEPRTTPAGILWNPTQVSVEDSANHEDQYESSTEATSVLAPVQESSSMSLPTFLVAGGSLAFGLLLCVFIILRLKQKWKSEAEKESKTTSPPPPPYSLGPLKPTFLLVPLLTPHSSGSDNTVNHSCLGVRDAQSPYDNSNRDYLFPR

T6: murine soluble IL-6R (mouse, UniProt P22272 20-347, limits assumed)
T6 sequence: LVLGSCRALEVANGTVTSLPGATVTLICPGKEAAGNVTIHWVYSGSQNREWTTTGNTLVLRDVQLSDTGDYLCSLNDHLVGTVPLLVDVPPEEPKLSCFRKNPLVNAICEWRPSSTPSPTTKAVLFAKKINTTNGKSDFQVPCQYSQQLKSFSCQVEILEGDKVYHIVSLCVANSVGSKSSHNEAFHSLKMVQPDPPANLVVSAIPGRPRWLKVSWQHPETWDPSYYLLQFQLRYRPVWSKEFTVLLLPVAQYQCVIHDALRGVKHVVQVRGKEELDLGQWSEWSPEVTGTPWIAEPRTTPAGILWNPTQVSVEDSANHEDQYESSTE

B1: anti-IL-6R IgG antibody C07 (antibody, V domains shown)
VH: EVKLVESGGGLVQPGGSLKLSCAASGFTFSSYAMSWVRQTADKRLELVANINSNGGSTYYPDSVKGRFTISRDNAKNTLFLQMSSLKSEDTAMYYCAREGYYTMDYWGQGTSVTVSS
VL: DIVLTQSPASLAVSPGQRATISCRASESVDSYGNSFMNWYQQKPGQPPKLLIYLASNLESGVPARFSGSGSRTDFTLTIDPVEADDAATYYCQQNNEDPYTFGGGTKLEIK
B2: anti-IL-6R IgG antibody C19 (antibody, V domains shown)
VH: B1 VH with V5M, S31N, A33G, A41P, N50I, I51M, N54K, K65M, F80Y, E99D
VL: B1 VL with P15L, E27K, Y32F, N38H, P47S, K49R, Y53F
B3: anti-IL-6R IgG antibody 07 (C07 antibody, Fab chimerized with human IgG1) (antibody, V domains shown)
VH: B1 VH
VL: B1 VL
B4: anti-IL-6R IgG antibody C20 (antibody, V domains shown)
VH: EVKLMESGGGLVQPGGSLKLSCAASGFTFSNYGMSWVRQTPDKRLELVAIINSNGGSTYYPDSVKGRFTISRDNAKNTLYLQMSSLKSEDTAIYYCARDGNFVSDYWGQGTTLTVSS
VL: B1 VL with P15L, S35R, M37L
B5: anti-IL-6R IgG antibody C09 (antibody, V domains shown)
VH: B4 VH with K3Q, M5V, G10D, I50A, I93M, F102Y
VL: B1 VL with P15L, N38H, Y100W
B6: anti-IL-6R IgG antibody C12 (antibody, V domains shown)
VH: B4 VH with L47W, I50N, K76Q, I93M, A97T
VL: B1 VL

Tests used:
Test in all cases: cell-based or functional assay
[1] = target: T1, human membrane-bound IL-6R subunit alpha
[2] = target: T2, human soluble IL-6R
[3] = target: T3, human soluble IL-6R
[4] = target: Hyper-IL-6 (recombinant fusion protein consisting of IL-6 and soluble IL-6R)
[5] = target: T4, human membrane-bound IL-6R subunit alpha; remark: listed apart in the source
[6] = target: T4, human membrane-bound IL-6R subunit alpha; remark: listed apart in the source
[7] = target: T4, human membrane-bound IL-6R subunit alpha; remark: listed apart in the source
[8] = target: T5, mouse membrane-bound IL-6R subunit alpha
[9] = target: T6, murine soluble IL-6R
[10] = target: T5, mouse membrane-bound IL-6R subunit alpha; remark: listed apart in the source
[11] = target: T3, human soluble IL-6R; remark: listed apart in the source
[12] = target: T4, human membrane-bound IL-6R subunit alpha; remark: listed apart in the source
[13] = target: T4, human membrane-bound IL-6R subunit alpha; remark: listed apart in the source

| Binder | IC50 for the inhibition of IL-6 classical signalling-induced proliferation (Ba/F3_gp130_IL-6R cells + IL-6) [1] [µg/mL] | IC50 for the inhibition of IL-6 mixed signalling-induced proliferation (Ba/F3_gp130_IL-6R cells + IL-6 + sIL-6R) [1] | Proliferation in % (Ba/F3_gp130 cells, IL-6 + sIL-6R = 100%; IL-6 trans signalling) at IgG 10 ng/ml [2] [%] | Proliferation in % (Ba/F3_gp130 cells, IL-6 + sIL-6R = 100%; IL-6 trans signalling) at IgG 100 ng/ml [2] [%] | Proliferation in % (Ba/F3_gp130 cells, IL-6 + sIL-6R = 100%; IL-6 trans signalling) at IgG 300 ng/ml [2] [%] | Proliferation in % (Ba/F3_gp130 cells, IL-6 + sIL-6R = 100%; IL-6 trans signalling) at IgG 500 ng/ml [2] [%] | Proliferation in % (Ba/F3_gp130 cells, IL-6 + sIL-6R = 100%; IL-6 trans signalling) at IgG 700 ng/ml [2] [%] | Proliferation in % (Ba/F3_gp130 cells, IL-6 + sIL-6R = 100%; IL-6 trans signalling) at IgG 1,000 ng/ml [2] [%] | Proliferation in % (Ba/F3_gp130 cells, IL-6 + sIL-6R = 100%; IL-6 trans signalling) at IgG 10,000 ng/ml [2] [%] | also measured |
| --- | --- | --- | --- | --- | --- | --- | --- | --- | --- | --- |
| B1 | > 10 | > 10 µg/ml and > 53 nM | 98.8 | 92.2 | 78.3 | 70.2 | 55.3 | 41.2 | 9.6 | – |
| B2 | > 10 | > 10 µg/ml and > 53 nM | 99.2 | 92.2 | 88.5 | 78.3 | 72.3 | 57.7 | 10.8 | – |
| B3 | – | – | – | – | – | – | – | – | – | IC50 of inhibition of proliferation of Ba/F3_gp130 cells induced by 10 ng/ml IL-6 and 200 ng/ml sIL-6R [3]: 757 ng/ml and 5 nM; IC50 of inhibition of proliferation of Ba/F3_gp130 cells induced by 28 ng/ml Hy-IL-6 [4]: 644 ng/ml and 4.3 nM; Proliferation in % of Ba/F3_gp130_IL-6R cells (10 ng/ml IL-6 = 100%), IgG at 1 µg/ml [5]: 92%; Proliferation in % of Ba/F3_gp130_IL-6R cells (10 ng/ml IL-6 = 100%), IgG at 10 µg/ml [5]: 90.8%; Proliferation in % of Ba/F3_gp130_IL-6R cells with 10 ng/ml IL-6 and 200 ng/ml sIL-6R (mixed signalling), IgG at 1 µg/ml [6]: 93%; Proliferation in % of Ba/F3_gp130_IL-6R cells with 10 ng/ml IL-6 and 200 ng/ml sIL-6R (mixed signalling), IgG at 10 µg/ml [6]: 85.9%; IC50 for inhibition of IL-6 classical signalling-induced proliferation [7]: > 53 nM; Proliferation in % of Ba/F3_gp130_muIL-6R cells (10 ng/ml murine IL-6 = 100%), IgG at 10 µg/ml [8]: 101%; Proliferation in % of Ba/F3_gp130 cells (10 ng/ml murine IL-6 + 200 ng/ml murine soluble IL-6R = 100%), IgG at 10 µg/ml [9]: 104%; Proliferation in % of Ba/F3_gp130_muIL-6R cells (10 ng/ml murine IL-6 + 200 ng/ml murine soluble IL-6R = 100%, mixed signalling), IgG at 10 µg/ml [10]: 108%; STAT3 phosphorylation in % in HEK293 cells (10 ng/ml IL-6 + 200 ng/ml sIL-6R for 30 min = 100%), IgG at 1 µg/ml [11]: 2.8%; STAT3 phosphorylation in % in HEK293_IL-6R cells (10 ng/ml IL-6 for 30 min = 100%), IgG at 1 µg/ml [12]: 86.2%; STAT3 phosphorylation in % in HEK293_IL-6R cells (10 ng/ml IL-6 + 200 ng/ml sIL-6R = 100%, mixed signalling), IgG at 1 µg/ml [13]: 105% |
| B4 | > 10 | > 10 µg/ml and > 53 nM | 103 | 88.5 | 84.8 | 52.8 | 36.1 | 16.3 | 6.5 | – |
| B5 | > 10 | > 10 µg/ml and > 53 nM | 98.2 | 93.1 | 88.3 | 82.6 | 82.5 | 72.9 | 25.8 | – |
| B6 | > 10 | > 10 µg/ml and > 53 nM | 101 | 98.9 | 89.1 | 75.3 | 66.9 | 48.1 | 11.6 | – |
